Experiment in all cases: loss of red fluorescence after photoconversion
Assay [1] addresses PhoCl2f empty barrel fragment (residues 1-231).
For assay [2], the target named is PhoCl1.5f-MVL empty barrel fragment (residues 1-231).
Assay [3] deals with PhoCl1 empty barrel fragment (residues 1-231), from pBAD/HisB constructs.

In the case of “PhoCl C-terminal peptide fragment (residues 232-242), from pBAD/HisB PhoCl variants”, the dissociation t1/2 in assay [1] came out at 1.27 min; in assay [3], 9.5 min. In assay [2], this substance returned a red fluorescence remaining after dissociation of 60%.

Values taken from article doi:10.1101/2020.12.10.419556.
